From patent US20120171195A1
Blank lines part the entries; values can stand above or below the substance they belong to.

Assays:
[1] = molecular target: HLA-B*4403 (human); assay: Luminex beads; MAb 1/100; PBS only
[2] = molecular target: HLA-Cw*0602 (human) (UniProt P10321); assay: Luminex beads; MAb 1/100; PBS only
[3] = molecular target: HLA-B*4701 (human); assay: Luminex beads; MAb 1/100; PBS only
[4] = molecular target: HLA-B*1401 (human) (UniProt P01889); assay: Luminex beads; MAb 1/100; PBS only
[5] = molecular target: HLA-B*4006 (human) (UniProt P01889); assay: Luminex beads; MAb 1/100; PBS only
[6] = molecular target: HLA-Cw*1701 (human); assay: Luminex beads; MAb 1/100; PBS only
[7] = molecular target: HLA-Cw*0801 (human) (UniProt P10321); assay: Luminex beads; MAb 1/100; PBS only
[8] = molecular target: HLA-Cw*0303 (human); assay: Luminex beads; MAb 1/100; PBS only
[9] = molecular target: HLA-Cw*0702 (human) (UniProt P10321); assay: Luminex beads; MAb 1/100; PBS only
[10] = molecular target: HLA-B*5801 (human); assay: Luminex beads; MAb 1/100; PBS only
[11] = molecular target: HLA-Cw*0202 (human); assay: Luminex beads; MAb 1/100; PBS only
[12] = molecular target: HLA-B*5101 (human); assay: Luminex beads; MAb 1/100; PBS only
[13] = molecular target: HLA-Cw*0501 (human); assay: Luminex beads; MAb 1/100; PBS only
[14] = molecular target: HLA-B*4501 (human); assay: Luminex beads; MAb 1/100; PBS only
[15] = molecular target: HLA-B*1801 (human); assay: Luminex beads; MAb 1/100; PBS only
[16] = molecular target: HLA-B*1511 (human) (UniProt P01889); assay: Luminex beads; MAb 1/100; PBS only
[17] = molecular target: HLA-Cw*1402 (human) (UniProt P10321); assay: Luminex beads; MAb 1/100; PBS only
[18] = molecular target: HLA-Cw*1802 (human) (UniProt P10321); assay: Luminex beads; MAb 1/200; PBS only
[19] = molecular target: HLA-B*1401 (human) (UniProt P01889); assay: Luminex beads; MAb 1/200; PBS only
[20] = molecular target: HLA-B*4006 (human) (UniProt P01889); assay: Luminex beads; MAb 1/200; PBS only
[21] = molecular target: HLA-Cw*1701 (human); assay: Luminex beads; MAb 1/200; PBS only
[22] = molecular target: HLA-B*5801 (human); assay: Luminex beads; MAb 1/200; PBS only
[23] = molecular target: HLA-Cw*0202 (human); assay: Luminex beads; MAb 1/200; PBS only
[24] = molecular target: HLA-Cw*0501 (human); assay: Luminex beads; MAb 1/200; PBS only
[25] = molecular target: HLA-B*4501 (human); assay: Luminex beads; MAb 1/200; PBS only
[26] = molecular target: HLA-B*5301 (B53) (human); assay: Luminex single-antigen beads; MEM-E/02 1/600; serum Mi92 1/100
[27] = molecular target: HLA-B*1511 (B75) (human) (UniProt P01889); assay: as above
[28] = molecular target: HLA-B*3901 (B39) (human) (UniProt P01889); assay: as above
[29] = molecular target: HLA-A*3002 (A30) (human) (UniProt P04439); assay: as above
[30] = molecular target: HLA-A*2402 (A24) (human) (UniProt P04439); assay: as above
[31] = molecular target: HLA-A*2501 (A25) (human); assay: as above
[32] = molecular target: HLA-B*1401 (B64) (human) (UniProt P01889); assay: as above
[33] = molecular target: HLA-Cw*1203 (Cw12) (human) (UniProt P10321); assay: as above
[34] = molecular target: HLA-B*5301 (B53) (human); assay: Luminex single-antigen beads; MEM-E/02 1/600; serum Mi114 1/100
[35] = molecular target: HLA-B*1301 (B13) (human); assay: as above
[36] = molecular target: HLA-A*3301 (A33) (human); assay: as above
[37] = molecular target: HLA-Cw*0401 (Cw4) (human); assay: as above
[38] = molecular target: HLA-Cw*1502 (Cw15) (human); assay: as above
[39] = molecular target: HLA-Cw*1701 (Cw17) (human); assay: as above
[40] = molecular target: HLA-A*3201 (A32) (human); assay: as above
[41] = molecular target: HLA-B*4801 (B48) (human) (UniProt P01889); assay: as above
[42] = molecular target: HLA-B*1401 (B64) (human) (UniProt P01889); assay: as above

- MFI [1]: 3680 MFI
- MFI [2]: 4040 MFI
- MFI [3]: 3650 MFI
- MFI [4]: 7340 MFI
- MFI [5]: 8590 MFI
- MFI [6]: 3360 MFI
- MFI [7]: 5890 MFI
- MFI [8]: 3200 MFI
- MFI [9]: 3080 MFI
- MFI [10]: 3990 MFI
- MFI [11]: 3880 MFI
- MFI [12]: 2210 MFI
- MFI [13]: 7180 MFI
- MFI [14]: 4770 MFI
- MFI [15]: 3540 MFI
- MFI [16]: 3430 MFI
- MFI [17]: 3470 MFI
- MFI [18]: 8830 MFI
- MFI [19]: 5330 MFI
- MFI [20]: 7010 MFI
- MFI [21]: 2270 MFI
- MFI [22]: 2830 MFI
- MFI [23]: 3020 MFI
- MFI [24]: 5830 MFI
- MFI [25]: 3670 MFI
Substance: murine monoclonal antibody (MAb) MEM-E/02

- MFI [26]: 797 MFI
- MFI [27]: 946 MFI
- % inhibition [28]: 60%
- MFI [28]: 737 MFI
- MFI [29]: < 500 MFI
- MFI [30]: < 500 MFI
- MFI [31]: 722 MFI
- % inhibition [32]: 7%
- MFI [32]: 701 MFI
- % inhibition [33]: 65%
- MFI [33]: 788 MFI
- MFI [34]: < 500 MFI
- MFI [35]: < 500 MFI
- MFI [36]: < 500 MFI
- MFI [37]: < 500 MFI
- MFI [38]: < 500 MFI
- MFI [39]: < 500 MFI
- MFI [40]: 742 MFI
- MFI [41]: 969 MFI
- MFI [42]: < 500 MFI
Substance: murine monoclonal antibody MAb MEM-E/02
